From patent US10501748B2, “Methods and compositions for integration of an exogenous sequence within the genome of plants” (Dow AgroSciences LLC, priority 2013, dated 2019) come the findings set out here.

In this data set the test system is endogenous AHAS genes (three homoeologous copies). As to the kind of experiment: transient assay of ZFN-mediated HR-directed AHAS editing in biolistically transfected scutella of immature zygotic embryos. The format is cell-based, Triticum aestivum. The note with it: for Editing Frequency (ppm): HR-directed, scutella. From the text: Donor DNA designs were based on a plasmid DNA vector containing 750-bp homology arms (i.e. sequence identical to the endogenous AHAS gene) flanking each side of the target cleavage site for ZFNs 29732 and 29730. A plasmid DNA vector was designed for each of the three wheat sub-genomes: pDAS000132 (FIG. 3), pDAS000133 (FIG. 4) and pDAS000134 (FIG. 5) were designed to the A-, B- and D-genome, respectively (SEQ ID NO:65, SEQ ID NO:66, and SEQ ID NO:67). Each plasmid DNA vector was designed to introduce an S653N ([…]) mutation as a genomic modification conferring tolerance to imidazolinone class herbicides at the target homoeologous copy of the endogenous AHAS gene by ZFN-mediated HR-directed DNA repair. Two additional plasmid DNA constructs were also designed to target the D-genome. The first plasmid DNA, pDAS000135 (SEQ ID NO: 68) (FIG. 6), was identical to pDAS000134 except that it contained two additional (synonymous) single nucleotide point mutations, one each located at 15-bp upstream and downstream of the S653N mutation.
Seedlings of the donor wheat line were grown in an environment controlled growth room maintained at 18/16° C. (day/night) and a 16/8 hour (day/night) photoperiod with lighting provided at […]. Wheat spikes were collected at 12-14 days post-anthesis and were surface sterilized by soaking for 1 min in 70% (v/v) ethanol. The spikes were threshed and the immature seeds were sterilized for 15 min in 17% (v/v) bleach with gentle shaking, followed by rinsing at least three times with sterile distilled water. The embryos were aseptically isolated from the immature seeds under a dissecting microscope. The embryonic axis was removed using a sharp scalpel and discarded. The scutella were placed into a 9 cm PETRI™ dish containing osmotic MS (E3 maltose) medium, with the uncut scutellum oriented upwards. A total of 20 scutella were plated onto each 9 cm PETRI™ dish. The prepared embryos were pre-cultured in the dark at 26° C. for a minimum of 4 h before transfection using biolistics-mediated DNA delivery.
Gold particles for biolistic-mediated DNA delivery were prepared by adding 40 mg of 0.6 micron colloidal gold particles (BioRad) to 1 mL of sterile water in a 1.5 mL microtube. The gold particles were resuspended by vortexing for 5 min. To prepare sufficient material for 10 bombardments, a 50 μL aliquot of the gold particle suspension was transferred to a 1.5 mL microtube containing 5 μg of DNA resuspended in 5 μL of sterile water. Following thorough mixing by vortexing, 50 μL of 2.5 M CaCl2 and 20 μL of 0.1 M spermidine were added to the microtube, with thorough mixing after the addition of each reagent. The DNA-coated gold particles were pelleted by centrifugation for 1 min at maximum speed in a bench top microfuge. The supernatant was removed and 1 mL of 100% ethanol was added to wash and resuspend the gold particles. The gold particles were pelleted by centrifugation, as described above, and the supernatant discarded. The DNA-coated gold particles were resuspended in 110 μL of 100% ethanol and maintained on ice. Following a brief vortex, 10 μL of the gold particle solution was placed centrally onto a macro-carrier membrane and allowed to air dry.
The PDS-1000/HE PARTICLE GUN DELIVERY SYSTEM™ (BioRad) was used to transfect the scutella of immature zygotic wheat embryos by biolistic-mediated DNA delivery. Delivery of the DNA-coated gold particles was performed using the following settings: gap 2.5 cm, stopping plate aperture 0.8 cm, target distance 6.0 cm, vacuum 91.4-94.8 kPa, vacuum flow rate 5.0 and vent flow rate 4.5. The scutella of immature zygotic wheat embryos were bombarded using a 900 psi rupture disc. Each PETRI™ dish containing 20 scutella was bombarded once. The bombarded scutella were incubated at 26° C. in the dark for 16 h before being transferred onto medium for callus induction. The scutella were cultured on callus induction medium in the dark at 26° C. for 7 d. […]

B1: pDAS000132: plasmid donor DNA, 750-bp homology arms, A-genome, introduces S653N mutation; SEQ ID NO:65 (nucleic acid)
DNA: TGCAAGCAGGTCCAAGATTGTGCACATTGACATTGACCCAGCTGAGATTGGCAAGAACAAGCAGCCACATGTCTCCATTTGTGCAGATGTTAAGCTTGCTTTACAGGGGTTGAATGCTCTATTAAATGGGAGCAAAGCACAACAGGGTCTGGATTTTGGTCCATGGCACAAGGAGTTGGATCAGCAGAAGAGGGAGTTTCCTCTAGGATTCAAGACTTTTGGCGAGGCCATCCCGCCGCAATATGCTATCCAGGTACTGGATGAGCTGACAAAAGGGGAGGCGATCATTGCTACTGGTGTTGGGCAGCACCAGATGTGGGCGGCTCAGTATTACACTTACAAGCGGCCACGGCAGTGGCTGTCTTCGTCTGGTTGGGGGCAATGGGATTTGGGTTACCAGCTGCAGCTGGCGCTGCTGTGGCCAACCCAGGTGTTACAGTTGTTGACATTGATGGAGATGGTAGTTTCCTCATGAACATTCAGGAGTTGGCATTGATCCGTATTGAGAACCTCCCTGTGAAGGTGATGATATTGAACAACCAGCATCTGGGAATGGTGGTGCAATGGGAGGATAGGTTTTACAAGGCCAATCGGGCGCACACATACCTTGGCAACCCAGAAAATGAGAGTGAGATATATCCAGATTTTGTGACGATTGCTAAAGGATTCAACGTTCCGGCAGTTCGTGTGACGAAGAAGAGCGAAGTCACTGCAGCAATCAAGAAGATGCTTGAGACCCCAGGGCCATACTTGTTGGATATCATCGTCCCGCATCAGGAGCACGTGCTGCCTATGATCCCAAATGGTGGTGCTTTCAAGGACATGATCATGGAGGGTGATGGCAGGACCTCGTACTGAAATTTCGACCTACAAGACCTACAAGTGTGACATGCGCAATCAGCATGGTGCCCGCGTGTTGTATCAACTACTAGGGGTTCAACTGTGAACCATGCGTTTTCTAGTTTGCTTGTTTCATTCATATAAGCTTGTGTTACTTAGTTCCGAACCCTGTAGCTTTGTAGTCTATGCTCTCTTTTGTAGGGATGTGCTGTCATAAGATATCATGCAAGTTTCTTGTCCTACATATCAATAATAAGTACTTCCATGGAATAATTCTCAGTTCTGTTTTGAATTTTGCATCTTCTCACAAACAGTGTGCTGGTTCCTTTCTGTTACTTTACATGTCTGCCGTGTCCGGTTATGACATAATGACCGATGGAGGGTGGTCAGCAGGTTTTAGACGGGGAGTTGAAACTTTTTTTTGGGGGGAAGAAATCTGAATACAGTTGGGAGGAAAGATAAAAGCATATACCTTGATTAATTTATTGAGCCCAATATCCAGCCTAATTTATCAAGCAATAGGCAGTGTAGGGTGTTGGC
modifications: pDAS000132
Consider B1, for which the “Editing Frequency (ppm)” value is recorded as 2,353 ppm (wheat sub-genome A, ZFN 29732-2A-29730, donor-to-ZFN molar ratio 5:1); 1,800 ppm (wheat sub-genome A, ZFN 29732-2A-29730, donor-to-ZFN molar ratio 10:1); 5 ppm (wheat sub-genome A, ZFN n/a (donor only), average of three biological replicates); 42 ppm (wheat sub-genome B, ZFN 29732-2A-29730, ratio 5:1); 30 ppm (wheat sub-genome B, ZFN 29732-2A-29730, ratio 10:1); 0 ppm (wheat sub-genome B, ZFN n/a (donor only)). Moreover, the “Editing Frequency (ppm)” value amounted to 110 ppm (wheat sub-genome D, ZFN 29732-2A-29730, ratio 5:1); 61 ppm (wheat sub-genome D, ZFN 29732-2A-29730, ratio 10:1); 0 ppm (wheat sub-genome D, ZFN n/a (donor only)). Under “co-transfected with pDAB109350, scutella (pDAS000131 and pDAS000134 also SEC protoplasts)”, the “molecular evidence for ZFN-mediated HR-directed editing in all three homoeologous copies of endogenous AHAS” value was “strong molecular evidence”.
